# Test results published in article doi:10.1101/2020.07.08.194076v1.
# B1: SlG2 (Solanum lycopersicum) (protein)
# chain: IATNEKVVMEKEEFNFKVYVAEKAICVNKALDEAIMVKDPPKIHEAMRYSLLAGGKRVRPMLCLAACELVGGNQGNAMAAACAVEMIHTMSLIHDDLPCMDDDDLRRGKPTNHKVYGEDVAVLAGDALLAFAFEYLATATTGVPPSRILVAVAELAKSVGTEGLVAGQVADLACTGNPNVGLEMLEFIHIHKTAALLEASVVIGAILGGGADEEVDKLRRFAQCIGLLFQVVDDILDVTKSSSELGKTAGKDLAVDKTTYPKLLGLEKAKEFAAELNGEAKQQLAAFDSHKAAPLIALADYIANRQN
# B2: AtG11 (Arabidopsis thaliana) (protein)
# chain: SSIVSSSVVTKEDNLRQSEPSSFDFMSYIITKAELVNKALDSAVPLREPLKIHEAMRYSLLAGGKRVRPVLCIAACELVGGEESTAMPAACAVEMIHTMSLIHDDLPCMDNDDLRRGKPTNHKVFGEDVAVLAGDALLSFAFEHLASATSSDVVSPVRVVRAVGELAKAIGTEGLVAGQVVDISSEGLDLNDVGLEHLEFIHLHKTAALLEASAVLGAIVGGGSDDEIERLRKFARCIGLLFQVVDDILDVTKSSKELGKTAGKDLIADKLTYPKIMGLEKSREFAEKLNREARDQLLGFDSDKVAPLLALANYIAYRQN
# B3: SlG1 (Solanum lycopersicum) (protein)
# chain: VSSKAEKFILPEFEFQEYMVTKAIKVNKALDEAIPMQEPIKVHEAMRYSLLAGGKRVRPILCMASCEVVGGDESLAIPAACAVEMIHTMSLVHDDLPCMDNDDLRRGKPTNHKIFGENTAVLAGDALLSLAFEHVATKTQNVPPQRVVQAIGELGSAVGSEGLVAGQIVDLASEGKQVSLTELEYIHHHKTSKLLEAAVVCGAIMGGGNEVDVERMRSYARCIGLLFQVVDDILDVTKSSDELGKTAGKDLITDKATYPKLMGLEKARQYAGELMAKAMNELSYFDYAKAAPLYHIASYIANRQN
# Substrate: C=C(C)CCO[P@@](=O)(O)OP(=O)(O)O
# Test: purified protein
# Conditions: co-substrate 100 µM DMAPP
row,Protein,Km [µM]
1,B1,79.75 ± 8.33
2,B2,38.49 ± 4.94
3,B3,74.18 ± 7.55

# Substrate: CC(C)=CCOP(=O)(O)OP(=O)(O)O
# Test: purified protein
# Conditions: co-substrate 100 µM IPP
row,Protein,Km [µM]
1,B1,49.55 ± 5.31
2,B2,32.86 ± 4.86
3,B3,31.82 ± 2.92
